Laboratory results: paper PMC10403523, “The AT-hook is an evolutionarily conserved auto-regulatory domain of SWI/SNF required for cell lineage priming” (Nature Communications, 2023)

Molecular target: T1, histone H4 of Xenopus laevis, in the 29N59 nucleosome (Xenopus laevis, UniProt P62799 1-103)
T1 construct: histone H4, Xenopus laevis; Stood within the nucleosome in the cross-linking
Assay: cross-linking; BS3 cross-linking with mass spectrometry (CX-MS): 35 nM FLAG tagged SWI/SNF, 35 nM 29-N-59 nucleosomes, 200 nM Gal4-VP16, 115 μM BS3, room temperature, 2 h
Conditions: both partners purified

B1: Snf2, catalytic subunit of yeast SWI/SNF, with a C-terminal double FLAG epitope (enzyme)
chain: MNIPQRQFSNEEVNRCYLRWQHLRNEHGMNAPSVPEFIYLTKVLQFAAKQRQELQMQRQQQGISGSQQNIVPNSSDQAELPNNASSHISASASPHLAPNMQLNGNETFSTSAHQSPIMQTQMPLNSNGGNNMLPQRQSSVGSLNATNFSPTPANNGENAAEKPDNSNHNNLNLNNSELQPQNRSLQEHNIQDSNVMPGSQINSPMPQQAQMQQAQFQAQQAQQAQQAQQAQQAQARLQQGRRLPMTMFTAEQSELLKAQITSLKCLVNRKPIPFEFQAVIQKSINHPPDFKRMLLSLSEFARRRQPTDQNNQSNLNGGNNTQQPGTNSHYNNTNTDNVSGLTRNAPLDSKDENFASVSPAGPSSVHNAKNGTLDKNSQTVSGTPITQTESKKEENETISNVAKTAPNSNKTHTEQNNPPKPQKPVPLNVLQDQYKEGIKVVDIDDPDMMVDSFTMPNISHSNIDYQTLLANSDHAKFTIEPGVLPVGIDTHTATDIYQTLIALNLDTTVNDCLDKLLNDECTESTRENALYDYYALQLLPLQKAVRGHVLQFEWHQNSLLTNTHPNFLSKIRNINVQDALLTNQLYKNHELLKLERKKTEAVARLKSMNKSAINQYNRRQDKKNKRLKFGHRLIATHTNLERDEQKRAEKKAKERLQALKANDEEAYIKLLDQTKDTRITHLLRQTNAFLDSLTRAVKDQQKYTKEMIDSHIKEASEEVDDLSMVPKMKDEEYDDDDDNSNVDYYNVAHRIKEDIKKQPSILVGGTLKDYQIKGLQWMVSLFNNHLNGILADEMGLGKTIQTISLLTYLYEMKNIRGPYLVIVPLSTLSNWSSEFAKWAPTLRTISFKGSPNERKAKQAKIRAGEFDVVLTTFEYIIKERALLSKVKWVHMIIDEGHRMKNAQSKLSLTLNTHYHADYRLILTGTPLQNNLPELWALLNFVLPKIFNSVKSFDEWFNTPFANTGGQDKIELSEEETLLVIRRLHKVLRPFLLRRLKKDVEKELPDKVEKVVKCKMSALQQIMYQQMLKYRRLFIGDQNNKKMVGLRGFNNQIMQLKKICNHPFVFEEVEDQINPTRETNDDIWRVAGKFELLDRILPKLKATGHRVLIFFQMTQIMDIMEDFLRYINIKYLRLDGHTKSDERSELLRLFNAPDSEYLCFILSTRAGGLGLNLQTADTVIIFDTDWNPHQDLQAQDRAHRIGQKNEVRILRLITTNSVEEVILERAYKKLDIDGKVIQAGKFDNKSTSEEQEALLRSLLDAEEERRKKRESGVEEEEELKDSEINEILARNDEEMAVLTRMDEDRSKKEEELGVKSRLLEKSELPDIYSRDIGAELKREESESAAVYNGRGARERKTATYNDNMSEEQWLRQFEVSDDEKNDKQARKQRTKKEDKSEAIDGNGEIKGENIDADNDGPRINNISAEDRADTDLAMNDDDFLSKKRKAGRPRGRPKKVKLEGSENSEPPALESSPVTGDNSPSEDFMDIPKPRTAGKTSVKSARTSTRGRGRGRGRGRGRGRGRGRPPKARNGLDYVRTPAAATSPIDIREKVAKQALDLYHFALNYENEAGRKLSDIFLSKPSKALYPDYYMIIKYPVAFDNINTHIETLAYNSLKETLQDFHLIFSNARIYNTEGSVVYEDSLELEKVVTKKYCEIMGDNSQLDFTEFDEQYGTRPLVLPPVVTSSVAESFTDEADSSMTEASV
notes: Snf2, catalytic subunit of SWI/SNF, S. cerevisiae; also called WT; SNF2-2FLAG; source: S. cerevisiae, SNF2-2FLAG in a Δsnf2 strain; not shown: FLAG x2, C-terminal, kept
B1: binds.
